These results are taken from publication PMC9539395 (2022).

Assay in all cases: BLI
Background: In BLI a coated tip is dipped into the sample, and binding shifts an interference pattern.

Assay [1] addresses T1, Wuhan RBD‐8his (SARS-CoV-2, UniProt P0DTC2).
The target of assay [2] is T2, gamma RBD (SARS-CoV-2, UniProt P0DTC2).
The target of assay [3] is T1, Wuhan RBD‐8his. The source holds these as a separate data set.
Assay [4] addresses T2, gamma RBD. The source holds these as a separate data set.

B1: sACE2_(2).v2.4(NN)‐IgG1 (Fc fusion)
chain: QSTIEEQAKYFLDKFNHEAEDLFYQSSLASWNYNTNITEENVQNMNNAGDKWSAFLKEQSTTAQMYPLQEIQNLTVKLQLQALQQNGSSVLSEDKSKRLNTILNTMSTIYSTGKVCNPDNPQECLLLEPGLNEIMANSLDYNERLWAWESWRSEVGKQLRPLYEEYVVLKNEMARANHYEDYGDYWRGDYEVNGVDGYDYSRGQLIEDVEHTFEEIKPLYEHLHAYVRAKLMNAYPSYISPIGCLPAHLLGDMWGRFWTNLYSLTVPFGQKPNIDVTDAMVDQAWDAQRIFKEAEKFFVSVGLPNMTQGFWEYSMLTDPGNVQKAVCHPTAWDLGKGDFRILMCTKVTMDDFLTAHNEMGNIQYDMAYAAQPFLLRNGANEGFHEAVGEIMSLSAATPKHLKSIGLLSPDFQEDNETEINFLLKQALTIVGTLPFTYMLEKWRWMVFKGEIPKDQWMKKWWEMKREIVGVVEPVPHDETYCDPASLFHVSNDYSFIRYYTRTLYQFQFQEALCQAAKHEGPLHKCDISNSTEAGQKLFNMLRLGKSEPWTLALENVVGAKNMNVRPLLNYFEPLFTWLKDQNKNSFVGWSTDWSPYADQSIKVRISLKSALGDKAYEWNDNEMYLFRSSVAYAMRQYFLKVKNQMILFGEEDVRVANLKPRISFNFFVTAPKNVSDIIPRTEVEKAIRMSRSRINDAFRLNDNSLEFLGIQPTLG
The term Kd denotes the concentration at which binding is half-saturated. Read a high Kd as lower affinity. In general, koff refers to the first-order rate constant of dissociation. High values mean a short-lived complex, low ones a long-lived complex. As to B1, the dissociation constant (Kd) in the assay with Wuhan RBD‐8his [1] and with gamma RBD [4] was 500 pM in each case. The off-rate constant (koff) with gamma RBD [2] was 0.00043 s⁻¹; in the assay with Wuhan RBD‐8his [3] it was 0.00032 s⁻¹.
